The values below come from patent publication US20260001914A1, “MACROCYCLIC PEPTIDES TARGETING KRAS” (Merck Sharp & Dohme LLC, priority 2022, published 2026).

The target in the experiment is Biotin-labeled KRAS-G12D protein (UniProt P01116-2 1-169, limits assumed, biotin label (site not stated); loaded with BODIPY-GDP). In words: cell-based or functional assay.
Substance “cyclo(FLac-NMeA-PyrimAla-cPrA-4Pal2F-hL-NMeF-amBCP) (peptide)” came in with an SOS assay EC50 of 2.69 nM. Next, “cyclo(NMeF-NMeNvalmid-3Pal-Nle-Phe2F-LysN3-NMe3Pal-c3amCb1c) (peptide)”: 7760 nM; “cyclo(F-R-Phe4Gn-Nle-TyrOMe-Nle-NMeF-cBuAc) (peptide)”: 419 nM. Next, “cyclo(F-6Quin4NH2-Phe4Gn-L-TyrOMe-Nle-NMeF-C1-C1Ac) (peptide)”: 7790 nM; “cyclo(F-R-3Pal-Nle-PraMe-Nle-NMe3Pal-aMeC1-C1Ac) (peptide)”: 3070 nM; “cyclo(NMeF-NMeNvalmid-3Pal-dNle-Phe2F-Nle-NMe3Pal-c3amCblc) (peptide)”: 1460 nM.

As for “cyclo(F-R-3Pal-cBuA-TyrOMe-AheNMeAhe-aMeC-C1Ac) (peptide)”, the SOS assay EC50 turned out to be 900 nM.

Regarding “cyclo(F-R-3Pal-Nle-Phe2F-Nle-NMe3Pal-aMeC-C1Ac) (peptide)”, the SOS assay EC50 was 370 nM. Next, “cyclo(NMeF-NMeNvaImid-3Pal-Nle-Phe2F-Nle-NMe3Pal-tamcPr) (peptide)”: 7650 nM. Take “cyclo(F-R-3Pal-Nle-TyrOMe-Nle-NMeF-dbhcLeu) (peptide)”: the SOS assay EC50 turned out to be 949 nM. Next, “cyclo(F-Nva-Phe4Gn-L-TyrOMe-Nle-NMeF-dC1-C1Ac) (peptide)”: 4320 nM; “cyclo(F-R-3Pal-cBuA-Phe24F2-Nle-NMe3Pal-aMeC1-C1Ac) (peptide)”: 1.35 nM; “cyclo(C1Ac-F-R-3Pal-cBuA-Hag-Nle-NMe3Pal-C) (peptide)”: 9150 nM. Consider “cyclo(Phe4F-R-4Pal-L-TyrOMe-Nva-NMeF-Cysteamine-C1Ac) (peptide)”, for which the SOS assay EC50 stood at 3010 nM. Next, “cyclo(F-R-3Pal-cBuA~TyrOMe-Nle-NMeF-spiro54) (peptide)”: 656 nM; “cyclo(TyrOMe-Orn~3Pal-cBuA-Phe2F-Nle-NMe3Pal-daMeC1-C1Ac) (peptide)”: 2130 nM. Next, “cyclo(F-NMeR-d3Pal-NMeNle-Phe2F-Nle-NMe3Pal-amBCP) (peptide)”: 1200 nM; “cyclo(C1Ac-F-R-3Pal-cBuA-Ape-Nle-NMe3Pal-C) (peptide)”: 7270 nM. Next, “cyclo(F-R-Phe4Gnc2-Nle-TyrOMe-Nle-NMeF-c3amCblc) (peptide)”: 15.6 nM; “cyclo(F-R-d3Pal-cBuA-Phe2F-Nle-NMe3Pal-amBCP) (peptide)”: 3.19 nM. “cyclo(Phe4F-R-4Pal-L-TyrOMe-Nva-NMeF-dC5-C1Ac) (peptide)” came in with an SOS assay EC50 of 70.2 nM.

Take “cyclo(F-baceNva-d3Pal-cBuA-Phe2F-Nle-NMe3Pal-amBCP) (peptide)”: the SOS assay EC50 came to 7.56 nM. Next, “cyclo(F-NH2IMNva-d3Pal-cBuA-Phe2F-Nle-NMe3Pal-amBCP) (peptide)”: 1.14 nM; “cyclo(Phe34F2-R-4Pal-L-TyrOMe-Nva-NMeF-dC1-C1Ac) (peptide)”: 2770 nM; “cyclo(F-NMeR-3Pal-Nle-TyrOMe-Nle-NMeF-c3amCblc) (peptide)”: 96.2 nM. Next, “cyclo(F-R-3Pal-Nle-I-Nle-NMe3Pal-aMeC1-C1Ac) (peptide)”: 642 nM; “cyclo(F-R~3Pal-cBuA-Phe26F2-Nle-NMe3Pal-aMeC1-C1Ac) (peptide)”: 4.6 nM.

On to “cyclo(F-NMeNvalmid-3Pal-Nle-Phe2F-LysN3-NMe3Pal-c3amCblc) (peptide)”, for which the SOS assay EC50 amounted to 612 nM. Next, “cyclo(F-R-3Pal-Nle-TyrOMe-Nle-NMeF-bhcLeu) (peptide)”: 193 nM; “cyclo(INal-R-4Pal-L-TyrOMe-Nva-NMeF-dC1-C1Ac) (peptide)”: 935 nM. Next, “cyclo(NMeF-NMeNvaImid-Phe4cPyrr-Nle-Phe2F-Nle-NMe3Pal-amBCP) (peptide)”: 3220 nM; “cyclo(1Nal-R-Phe4CH2NHAc-Nle-Y-Nle-NMeF-daMeC-C1Ac) (peptide)”: 7030 nM; “cyclo(F-R-3Pal-Nle-TyrOMe-Nle-NMeF-cBuAc) (peptide)”: 117 nM.

“cyclo(F-R-Phe4Gn-Nle-TyrOMe-Nle-NMeF-acBu) (peptide)” came in with an SOS assay EC50 of 13.8 nM. Next, “cyclo(F-R-d3Pal-cBuA-TyrOMe-Nle-NMeF-Smcysteamine-C1Ac) (peptide)”: 37.8 nM.

As to “cyclo(INal-R-K-Nle-Phe3AcOH-Nle-NMeF-Cysteamine-C1Ac) (peptide)”, the SOS assay EC50 came to 2650 nM.

In turn, “cyclo(F-R-d3Pal-cBuA-Phe2F-Nle-NMe3Pal-amOBCH) (peptide)” returned an SOS assay EC50 of 6820 nM.

“cyclo(F-R-3Pal-Nle-V-Nle-NMe3Pal-aMeC1-C1Ac) (peptide)” gave an SOS assay EC50 of 329 nM. Next, “cyclo(F-ArgMeMe-Phe4Gn-L-TyrOMe-Nle-NMeF-dC1-C1Ac) (peptide)”: 1160 nM; “cyclo(F-R-3Pal-cBuA-TyrOMe-HagNMeHag-daMeC-C1Ac) (peptide)”: 238 nM; “cyclo(FLac-NMeA~PyrimAla-cPrA-3Pal6F-hL-NMeF-amBCP) (peptide)”: 3.72 nM.

For “cyclo(F-R-3Pal-cBuA-TyrOMe-Nle-NMeF-spiro44) (peptide)”, the SOS assay EC50 stood at 7340 nM.

Substance “cyclo(F-NMeDabN3-3Pal-Nle-Phe2F-Nle-NMe3Pal-amBCP) (peptide)” yielded an SOS assay EC50 of 267 nM.

In turn, “cyclo(F-NMeNvalmid-3Pal-Nle-Phe2F-Nle-NMe3Pal-tamcPr) (peptide)” gave an SOS assay EC50 of 272 nM. Next, “cyclo(NMeF-NMeNvalmid-3Pal-Nle-Phe2F-Nle-NMe3Pal-c3amCblc) (peptide)”: 1220 nM. Consider “cyclo(F-R-hK-Nle-Bip-hY-NMeF-Cysteamine-C1Ac) (peptide)”, for which the SOS assay EC50 is 4490 nM.

As for “cyclo(F-R-3Pal-cBuA-AbuF3-Nle-NMeF-aMeC1-C1Ac) (peptide)”, the SOS assay EC50 was determined as 861 nM.

Take “cyclo(F-R-Phe4cPyrr-Nle-TyrOMe-Nle-NMeF-c3amCblc) (peptide)”: the SOS assay EC50 turned out to be 35.3 nM.

In turn, “cyclo(F-R-3Pal-Nle-all-Nle-NMe3Pal-aMeC1-C1Ac (peptide)” displayed an SOS assay EC50 of 946 nM. Next, “cyclo(F-NO2IMNva-d3Pal-cBuA-Phe2F-Nle-NMe3Pal-amBCP) (peptide)”: 242 nM. “cyclo(F-R-Phe4cMph-Nle-TyrOMe-Nle-NMeF-c3amCblc) (peptide)” returned an SOS assay EC50 of 60.6 nM. Next, “cyclo(F-MorNva-3Pal-cBuA-Phe2F-Nle-NMe3Pal-amBCP) (peptide)”: 432 nM; “cyclo(F-R-PyrimAla-cBuA-Phe2F-Nle-NMe3Pal-aMeC1-C1Ac) (peptide)”: 0.998 nM; “cyclo(F-R-4CF33Pal-cBuA-Phe2F-Nle-NMe3Pal-aMeC1-C1Ac) (peptide)”: 1.59 nM. For “cyclo(F-R-3Pal-cBuA-Phe2F-Nle-NMeF-aMeC1-C1Ac) (peptide)”, the SOS assay EC50 was determined as 2 nM.

Substance “cyclo(Phe4F-R-4Pal-L-TyrOMe-Nva-NMeF-dC1-C1Ac) (peptide)” returned an SOS assay EC50 of 1170 nM.
